Biological target: T1, MPK19 (Arabidopsis, UniProt Q9LUC3 1-598)
T1 construct: MPK19, MAPK family kinase, Arabidopsis; fusion protein spotted on the functional protein microarray; source: printed on protein microarrays (AtPMA-5000 and AtPMA-10000)
T1 sequence (looked up): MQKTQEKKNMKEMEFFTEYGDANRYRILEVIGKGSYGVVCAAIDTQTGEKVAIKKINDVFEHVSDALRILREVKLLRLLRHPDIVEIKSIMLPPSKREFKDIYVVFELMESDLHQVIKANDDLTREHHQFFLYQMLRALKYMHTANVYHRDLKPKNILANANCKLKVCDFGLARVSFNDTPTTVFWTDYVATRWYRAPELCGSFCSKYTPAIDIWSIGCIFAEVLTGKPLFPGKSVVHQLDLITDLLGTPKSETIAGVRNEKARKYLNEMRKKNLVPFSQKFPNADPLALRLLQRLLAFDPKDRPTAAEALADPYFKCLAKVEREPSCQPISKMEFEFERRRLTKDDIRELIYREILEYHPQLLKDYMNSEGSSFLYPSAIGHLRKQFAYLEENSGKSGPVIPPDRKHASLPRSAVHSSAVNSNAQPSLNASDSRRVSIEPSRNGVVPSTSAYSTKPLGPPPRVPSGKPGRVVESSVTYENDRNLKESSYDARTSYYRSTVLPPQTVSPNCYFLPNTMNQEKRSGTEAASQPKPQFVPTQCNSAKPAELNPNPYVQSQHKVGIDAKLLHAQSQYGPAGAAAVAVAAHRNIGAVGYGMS
Experiment: peptide or protein array; functional protein microarrays (AtPMA-5000 and AtPMA-10000, about 15,000 Arabidopsis proteins) probed with 150 ul purified ILK1-V5 in solution for 1.5 h with 1% BSA, 5 mM MgCl2 and MnCl2; detected with Cy5-conjugated anti-V5 antibody; three probe arrays against two control arrays without probe; one-sided t-test, 5% significance, FDR
Conditions: both partners purified

binding result: binds
B1: ILK1-V5 (integrin-linked kinase 1, Arabidopsis) (enzyme, UniProt F4IS56 1-479, looked up)
chain: MENITAQLKRGISRQFSTGSIRRTLSRQFTRQSSLDPRRTNMRFSFGRQSSLDPIRRSPDSSKSDDEPHMSVPENLDSTMQLLFMASKGDVRGIEELLDEGIDVNSIDLDGRTALHIAACEGHLGVVKALLSRRANIDARDRWGSTAAADAKYYGNLDVYNLLKARGAKVPKTRKTPMTVSNPREVPEYELNPLEVQVRKSDGISKGAYQVAKWNGTRVSVKILDKDSYSDPERINAFRHELTLLEKVRHPNVIQFVGAVTQNIPMMIVVEYNPKGDLSVYLQKKGRLSPSKALRFALDIARGMNYLHECKPDPIIHCDLKPKNILLDRGGQLKISGFGMIRLSKISQDKAKVANHKAHIDLSNYYIAPEVYKDEIFDLRVDAHSFGVILYEITEGVPVFHPRPPEEVARMMCLEGKRPVFKTKSRSYPPDIKELIEKCWHPEAGIRPTFSEIIIRLDKIVANCSKQGWWKDTFKFPWK
notes: ILK1, integrin-linked kinase 1, a pseudokinase of the Raf-like MAP3K family, Arabidopsis; also called purified ILK1-V5 protein; source: purified as described previously (Brauer et al., 2014, 2016); purity validated by mass spectrometry

— publication PMC9403797, “Back From the Dead: The Atypical Kinase Activity of a Pseudokinase Regulator of Cation Fluxes During Inducible Immunity” (Frontiers in Plant Science, 2022)
